Test results reported in the nanobody polyreactivity screen of Harvey et al. (2022).

Experiment: yeast display, Sf9 membrane polyspecificity reagent, FACS + sequencing; frameworks hold sequencing errors
Method in brief: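 A synthetic nanobody library was expressed on Saccharomyces cerevisiae BJ5465 by galactose induction for 36–48 hours. The library was stained for 1 hour at 4 °C with 10% biotinylated, detergent-solubilized Sf9 membrane reagent and enriched with streptavidin microbeads before FACS. Low and high (top ~1%) gates were set on anti-HA fluorescence for expression and streptavidin fluorescence for reagent binding, and each polyreactivity label reflects the gate of origin.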

| Sequence | polyreactivity (PSR sort gate) |
| --- | --- |
| QVQLVESGGGLVQAGGSLRLSCAASGSTFVYNAMGWYRPAPGKERELVAAISARTGRTYYADSVKGRFTISRDNAKNTVYLQMNSLKPEDTAVYYCAAGLIVGRFLRYDYWGQGTQVTVSS | high polyreactivity |
| QVQLVESGGGLVQAGGSLRLSCAASGSTFVYNAMGWYRQAPGKERELVAAISARTGRTYYADSVKGRFTISRDNAKNTVYLQMNSLKPEDTAVYYCARRYYTGYKNLPYGYWGQGTQVTVSS | high polyreactivity |
| QVQLVESGGGLVQAGGSLRLSCAASGSTFVYNTMGWYTQAPGKERELVAGIDWSGGRTFYADSVKGRFTISRDNAKNTVYLQMNSLKPEDTAVYYCAKRLRVYRPWTYNYWGQGTQVTVSS | high polyreactivity |
| QVQLVESGGGLVQAGGSLRLSCAASGSTFVYNVMGWYRQAPGKERELVAAITSCVRTYYADSVKGRFTISRDNAKNTVYLQMNSLKPEDTAVYYCAARGYYSVVEYYYWGQGTQVTVSS | high polyreactivity |
| QVQLVESGGGLVQAGGSLRLSCAASGSTFVYYAMGWYRQAPGKERELGAAITASGGGTYYADSVKGRFTISRDNAKNTVYLQMNSLKPEDTAVYYCNRGYDYWGQGTQVTVSS | low polyreactivity |
| QVQLVESGGGLVQAGGSLRLSCAASGSTFVYYAMGWYRQAPGKERELVADISWSGGDTYYADSVKGRFTISRDNAKNTVYFQMNSLKPEDTAVYYCAAEWSTPSYVGFADGFEYWGQGTQVTVSS | low polyreactivity |
| QVQLVESGGGLVQAGGSLRLSCAASGSTFVYYGMGWYRQAPGKERELVAAITDIGDSTNYADSVKGRFTISRDNAKNTVYLQMNSLKPEDTAVYYCAASGRSVPYYGSPRNDYWGQGTQVTVSS | low polyreactivity |
| QVQLVESGGGLVQAGGSLRLSCAASGSTFWANAMGWYRQAPGKERELVAAITSTGITYYADSVKGRFTISRDNAKNTVYLQMNSLKPEDTAVYYCAADGYRYSVYLIRNPMDYWGQGTQVTVSS | low polyreactivity |
| QVQLVESGGGLVQAGGSLRLSCAASGSTFWAYAMGWYRQAPGKERELVAAITTGGGRTFYADSVKGRFTISRDNAKNTVYLQMNSLKPEDTAVYYCAAVSQSYRMYYWGEGTQVTVSS | low polyreactivity |
| QVQLVESGGGLVQAGGSLRLSCAASGSTFWAYVMGWYRQAPGKERELVAAISKSGVRTHYADSVKGRFTISRDNAKNTVYLQMNSLKPEDTAVYYCAAGGVGNLDDYWGQVTQVTVSS | high polyreactivity |
| QVQLVESGGGLVQAGGSLRLSCAASGSTFWFNAMGWYRQAPGKERELVAISGSVGSTYADSVKGRFTISRDNAKNTVYLQMNSLKPEDTAVYYCNADSVWYRNPWSFSPRYNYWGQGTQVTVSS | low polyreactivity |
| QVQLVESGGGLVQAGGSLRLSCAASGSTFWFYAMGWYRQAPGKERELVAAISSSGTNTYYADSVKGRFTISRDNAKNTVYLQMNSLKPEDTAVCYCAAQYRGSYRTTYDYWGQCTQVTVSS | low polyreactivity |
| QVQLVESGGGLVQAGGSLRLSCAASGSTFWGNAMGWYRQAPGKERELVAAISTSDTSTYYADSVKGRFTISRDNAKNTVYLQMNSLKPEDTAVYYCAAEWYYGEKYDYWVQGTQVTVSS | low polyreactivity |
| QVQLVESGGGLVQAGGSLRLSCAASGSTFWGYALGWYRQAPGKERELVASIRRGASTTYADSVKGRFTISRDNAKNTVYLQMNSLKPEDSAVYYCAKPGYFRSHDYWGQGTQVTVSS | low polyreactivity |
| QVQLVESGGGLVQAGGSLRLSCAASGSTFWGYVMGWYRQAPGKERELVAAITGSGGSTYYADSVKGRFTISRDNAKNTVYLQMNSLKPEDTAVYYCAAAWSKSTSRRYGYWGQGTQVTVSS | low polyreactivity |
| QVQLVESGGGLVQAGGSLRLSCAASGSTFWIYAMGWYRQAPGKERELVAAISWSTGRTYYADSVKGRFTISRDNAKNTVYLQMNSLKPEDTAVYYCNAGPQHNTLKLFYYWGQGTQVTVSS | low polyreactivity |

| Sequence | polyreactivity (PSR sort gate) |
| --- | --- |
| QVQLVESGGGLVQAGGSLRLSCAASGSTFWKYAMGWYRQAPGKERELVAAINTSGGRTYYADSVKGRCTISRDNAKNTVYLQMNSLKPEDTAVYYCNARQGITYKDGRSIKYDYWGQGTQVTGSS | high polyreactivity |
| QVQLVESGGGLVQAGGSLRLSCAASGSTFWKYAMGWYRQAPGKERELVAAITRNGGRTFYADSVKGRFTISRDNAKNTVYLQMNSLKPEDTAVYYCNATAGHGYYYWGQGTQVTVSS | high polyreactivity |
| QVQLVESGGGLVQAGGSLRLSCAASGSTFWKYVMGWYRQAPGKVRELVAAITSRGGSTYADSVKGRFTISRDNAKNTVYLQMNSLKPEDTAVYYCAATKFWYYGYDYWGQGTQVTVSS | low polyreactivity |
| QVQLVESGGGLVQAGGSLRLSCAASGSTFWLNAMGWYRPAPGKEWEFVAAITVRGGSTYYADSVKGRFTISRDNAKNTVYLQMNSLKPEDTAVYYCNKGSIEKTEMEYWGQGTQVTVSS | low polyreactivity |
| QVQLVESGGGLVQAGGSLRLSCAASGSTFWLYAMGWYRQAPGKERELVAAISSTGNTNYADSVKGRFTISRDNAKNTVYLQMNSLKPEDTAVYYCAADSWDYDSRMDYWGQGTQVTVSS | low polyreactivity |
| QVQLVESGGGLVQAGGSLRLSCAASGSTFWNNAMGWYRQAPGKERELVAVINSSGGSTYYADSVKGRFTISRDNAKNTVYLQMNSLKPEDTAVYYCNADATDSYPEKDEHDSWGQGTQVTVSS | low polyreactivity |
| QVQLVESGGGLVQAGGSLRLSCAASGSTFWPYAMGWCRQAPGKERELVAAITWSGGRTYYADSVKGRFTISRDNAKNTVYLQMYSLKPEDTAVYYCAAYYRQGIAPNGFDYWGQGTQVTVSS | high polyreactivity |
| QVQLVESGGGLVQAGGSLRLSCAASGSTFWPYAMGWYRQAPGKERELVAAIRVIGGSTYYADSVKGRFTISRDNAKNSVYLQMNSLKPEDTAVYYCNAYRPGGARFYARYRYDYWGQGTQVTVSS | low polyreactivity |
| QVQLVESGGGLVQAGGSLRLSCAASGSTFWPYAMGWYRQATGKERELVAAISNGGGTKYADSVKGRFTISRDNAKNTVYLQMNSLKPEDTAVYYCAKTLWTGRAWYDYWGQGTQVTVSS | high polyreactivity |
| QVQLVESGGGLVQAGGSLRLSCAASGSTFWRNALGWYRQAPGKERELVAAITDSGDSTYYADSVKGRFTISRDTAKNTVYLQMHSLKPEDTAVYYCAVDKLSLYGWDEYWGQGTQVTVSS | low polyreactivity |
| QVQLVESGGGLVQAGGSLRLSCAASGSTFWRYAMGWYRQAPGKERELVAAITSSGDRTYYADSVKGRFTISRDNAKNTVYLQMNSLKPEDTAVYYCAAALWSSRGYYYAYYYWGQGTQVTVSS | high polyreactivity |
| QVQLVESGGGLVQAGGSLRLSCAASGSTFWSYAIGWYRQAPGKERELVATISAGGGSTSYADSVKGRFTISRDNAKNTVYLQMNSLKPEDTAVYYCATGYSDSSRYGGYYKFDYWGQGTQVTVSS | low polyreactivity |
| QVQLVESGGGLVQAGGSLRLSCAASGSTFWSYAMGWYRQAPGKERELVAVITWSGGSTNYADSVKGRFTISRDNAKNTVYLQMNSLKPEDTAVYYCNAPYYFWSYIYDYLGQGTQVTVSS | low polyreactivity |
| QVQLVESGGGLVQAGGSLRLSCAASGSTFWSYTMGWYRQAPGKEREWVAAISRSGGSTYYADSVKGRFTISRDNAKNTVYLQLNSLKPEDTAVYYCAAADRYGSRYYYWGQGTQVTVSS | high polyreactivity |
| QVQLVESGGGLVQAGGSLRLSCAASGSTFWVYAMGWYRPAPGKERELVAAIDYSGGSTYYADSVKGRFTISRDNAKNTVYLQMNSLKPEDTAVYYGAAGEGQYWLWDGEGEYDYWGQGTQVTVSS | low polyreactivity |
| QVQLVESGGGLVQAGGSLRLSCAASGSTFWYAMGWYRQAPGKERELVAAITARGGRTYYADSVKGRFTISRDNAKNTVYLQMNSLKPEDTAVYYCAAVSTGIGARYNYWGQGTQVTVSS | high polyreactivity |
